Laboratory results taken from PMC5429843.

How the values were obtained:
His186 = His186 (UniProt position 186, ITVKQHTVTTT); assay: NMR; details: 20 °C, not stated (36 mM sodium phosphate + 36 mM sodium citrate, no added salt stated), folded RaPrP90-231, 1 mM
His187 = His187 (UniProt position 187, ITIKQHTVTTT); assay: NMR; details: 20 °C, not stated (36 mM sodium phosphate + 36 mM sodium citrate, no added salt stated), folded GHaPrP90-231, 1 mM

Substance | pKa (His186) | pKa (His186; oxidised disulfide) | pKa (His187) | pKa (His187; oxidised disulfide. Progressive loss of amide dispersion and peak inhomogeneity near pH 5.)
Major prion protein, C-terminal domain (RaPrP90-231) (Oryctolagus cuniculus (rabbit)) | 5.1 | 5.1 ± 0.1 |  | 
Major prion protein, C-terminal domain (GHaPrP90-231) (Mesocricetus auratus (golden/Syrian hamster)) |  |  | 4.9 ± 0.2 | 4.9 ± 0.1
